Experimental data reported in patent US20240384326.

Legend:
[1] = target: APOBEC3A (E109A/E109Q as variously stated), no fusion E109A (Homo sapiens) (UniProt P31941); assay: cleavage_in_vitro; conditions: USER assay, 10 mM MgCl2, pH 7, 37C
anti-m6A antibody Ab01 = assay: ELONA
anti-m6A antibody Ab05 = assay: ELONA
anti-m6A antibody Ab02 = assay: ELONA
[2] = tested on: Ab05 randomly labeled with DNA adapter (HyNic); assay: ELONA; conditions: m6A at position 9; random HyNic labeling
anti-m5C antibody Ab16 = assay: ELONA
[3] = tested on: anti-inosine antibody Ab10; assay: ELONA
[4] = tested on: anti-pseudouridine antibody Ab19; assay: ELONA; conditions: unmodified control
[5] = tested on: anti-pseudouridine antibody Ab11; assay: ELONA; conditions: unmodified control
[6] = m6A at position 9, plate ELISA, avidity, stated only as subnanomolar

APOBEC3A (E109A/E109Q as variously stated), no fusion E109A (Homo sapiens), sequence (P31941 whole entry E109A, the tested form may be a part): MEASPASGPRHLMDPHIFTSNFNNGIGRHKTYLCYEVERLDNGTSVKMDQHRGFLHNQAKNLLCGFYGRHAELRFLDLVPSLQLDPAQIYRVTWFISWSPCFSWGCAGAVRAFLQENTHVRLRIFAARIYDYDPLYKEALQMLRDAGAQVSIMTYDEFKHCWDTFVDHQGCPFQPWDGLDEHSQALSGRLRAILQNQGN

## FAM-DNA oligonucleotide with a single central C
[1]
  activity (fold vs APOBEC1): > 10

## NNNNNNNNANNNNNNNN [m6A degenerate RNA (SEQ ID NO: 1)]
anti-m6A antibody Ab01; m6A at position 9, plate ELISA, immobilised RNA, avidity, stated only as subnanomolar, 22C
  Kd: < 1 nM
anti-m6A antibody Ab05; [6]
  Kd: < 1 nM
anti-m6A antibody Ab02; [6]
  Kd: < 1 nM
[2]
  binding signal (fold loss of KD vs unlabeled Ab05): > 15

## NNNNNNNNCNNNNNNNN [m5C degenerate RNA (SEQ ID NO: 4)]
anti-m5C antibody Ab16; m5C at position 9, plate ELISA, avidity, stated only as subnanomolar
  Kd: < 1 nM

## NNNNNNNNINNNNNNNN [inosine degenerate RNA (SEQ ID NO: 2 in Table 4)]
[3]; inosine at position 9, plate ELISA, avidity, stated only as subnanomolar
  Kd: < 1 nM

## NNNNNNNNNNNNNNNN [unmodified degenerate reference RNA (SEQ ID NO: 5)]
anti-m6A antibody Ab01; unmodified control
  binding signal (fold weaker than cognate): > 100
anti-m6A antibody Ab05; unmodified control
  binding signal (fold weaker than cognate): > 100
anti-m5C antibody Ab16; unmodified control
  binding signal (fold weaker than cognate): > 100
[3]; unmodified control
  binding signal (fold weaker than cognate): > 100
anti-m6A antibody Ab02; unmodified control
  binding signal (fold weaker than cognate): > 100
[4]
  binding signal (fold weaker than cognate): 10
[5]
  binding signal (fold weaker than cognate): 10
